Assay results from paper PMC3774411, “Characterization of the Human Sigma-1 Receptor Chaperone Domain Structure and Binding Immunoglobulin Protein (BiP) Interactions*” (The Journal of Biological Chemistry, 2013).

Assays:
[1] = biological target: T1, isolated nucleotide binding domain of human BiP (residues 26-410) (human, UniProt P11021 26-410); assay: NMR titration; 15N-labelled S1R(cd) (~250 uM) in DPC micelles titrated with unlabelled BiP constructs; 1H,15N SOFAST-HMQC, cross-peak intensities and chemical shifts; 100 mM NaCl, 30 mM DPC, 5 mM 2-mercaptoethanol, 20 mM HEPES pH 6.5, 37 C; full-length BiP without and with 2.5 mM calcium chloride, NBD without calcium, SBD with 2.5 mM calcium; details: both partners purified
T1 construct: also called NBD; BiP NBD; source: E. coli BL21(DE3), purified (ammonium sulfate precipitation, nickel chromatography, Q-Sepharose, Superdex200)

[2] = biological target: T2, human binding immunoglobulin protein (BiP), residues 26-654 ("full length") (human, UniProt P11021 26-654); assay: as above; details: both partners purified
T2 construct: Constructs from Herwig Schueler, Karolinska Institutet; also called full-length BiP; source: E. coli BL21(DE3), purified (ammonium sulfate precipitation, nickel chromatography, Q-Sepharose, Superdex200)
T2 sequence (P11021 26-654): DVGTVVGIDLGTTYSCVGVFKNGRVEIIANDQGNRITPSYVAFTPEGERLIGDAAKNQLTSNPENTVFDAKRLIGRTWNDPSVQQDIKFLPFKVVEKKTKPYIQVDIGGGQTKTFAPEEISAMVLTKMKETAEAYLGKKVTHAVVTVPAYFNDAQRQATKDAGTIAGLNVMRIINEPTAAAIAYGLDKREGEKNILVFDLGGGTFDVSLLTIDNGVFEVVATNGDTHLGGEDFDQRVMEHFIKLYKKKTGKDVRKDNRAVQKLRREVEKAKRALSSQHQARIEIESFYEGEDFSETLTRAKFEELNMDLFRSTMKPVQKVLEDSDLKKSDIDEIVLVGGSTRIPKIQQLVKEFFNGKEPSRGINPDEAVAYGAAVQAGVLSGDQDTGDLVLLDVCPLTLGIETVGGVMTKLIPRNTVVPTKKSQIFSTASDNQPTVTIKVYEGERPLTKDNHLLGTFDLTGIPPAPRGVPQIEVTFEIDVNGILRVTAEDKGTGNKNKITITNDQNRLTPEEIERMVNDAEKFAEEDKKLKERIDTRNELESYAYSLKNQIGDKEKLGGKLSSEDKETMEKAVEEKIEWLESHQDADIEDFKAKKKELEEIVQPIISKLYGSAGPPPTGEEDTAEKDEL

T1 sequence (P11021 26-410): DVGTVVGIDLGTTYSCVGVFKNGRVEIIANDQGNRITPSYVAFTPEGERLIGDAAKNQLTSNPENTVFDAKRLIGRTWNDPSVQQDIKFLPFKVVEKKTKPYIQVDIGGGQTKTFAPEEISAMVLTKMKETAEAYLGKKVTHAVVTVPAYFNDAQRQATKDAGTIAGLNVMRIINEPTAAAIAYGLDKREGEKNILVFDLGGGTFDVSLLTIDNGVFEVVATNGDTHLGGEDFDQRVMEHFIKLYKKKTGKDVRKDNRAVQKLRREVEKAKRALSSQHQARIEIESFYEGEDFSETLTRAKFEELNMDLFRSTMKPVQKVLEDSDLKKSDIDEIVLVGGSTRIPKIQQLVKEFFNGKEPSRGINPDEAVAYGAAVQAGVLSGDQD

B1: human sigma-1 receptor chaperone domain (residues 112-223) (domain or fragment, UniProt Q99720 112-223, looked up)
chain: GSRGHSGRYWAEISDTIISGTFHQWREGTTKSEVFYPGETVVHGPGEATAVEWGPNTWMVEYGRGVIPSTLAFALADTVFSTQDFLTLFYTLRSYARGLRLELTTYLFGQDP
notes: sigma-1 receptor (S1R), human, residues 112-223 (chaperone domain; 223 is the C-terminal residue); 15N-labelled for the titrations; No cleavage of the tag is described; also called S1R(cd); S1R chaperone domain
B1: binds [1]; binds [2].
